Numbered stars: 1 amine (or outer) side, 2 acyl side, 3 side chain; on linkers, the order of the positions; unused ones are H or OH. Bridge positions count the residues as written; N and C are the ends. Side chains are listed from the residue outwards. Ends that are not written are not given here. * marks the point of attachment. C20 diacid = O=C(O)CCCCCCCCCCCCCCCCCCC(=O)*; γGlu = O=C(O)[C@H](CCC(=O)[*:2])N[*:1]
T1: human calcitonin receptor (human, UniProt P30988 25-474)
T1 sequence (looked up): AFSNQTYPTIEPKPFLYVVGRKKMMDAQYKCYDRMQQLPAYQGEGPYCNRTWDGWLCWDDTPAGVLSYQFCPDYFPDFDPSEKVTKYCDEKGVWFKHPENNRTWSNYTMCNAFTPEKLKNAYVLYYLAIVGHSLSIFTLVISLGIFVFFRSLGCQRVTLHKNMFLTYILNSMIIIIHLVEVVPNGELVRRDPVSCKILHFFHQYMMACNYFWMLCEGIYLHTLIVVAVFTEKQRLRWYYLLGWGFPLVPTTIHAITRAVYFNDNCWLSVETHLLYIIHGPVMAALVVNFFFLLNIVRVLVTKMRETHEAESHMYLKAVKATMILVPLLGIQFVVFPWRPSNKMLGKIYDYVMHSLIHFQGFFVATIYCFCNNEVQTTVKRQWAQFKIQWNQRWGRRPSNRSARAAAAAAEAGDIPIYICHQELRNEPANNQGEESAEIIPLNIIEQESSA

T2: human amylin 3(a) receptor (human calcitonin receptor co-expressed with RAMP-3) (human, UniProt P30988 25-474; O60896 24-148, limits assumed)
T2 sequence (looked up) 1: T1 sequence (looked up)
T2 sequence (looked up) 2: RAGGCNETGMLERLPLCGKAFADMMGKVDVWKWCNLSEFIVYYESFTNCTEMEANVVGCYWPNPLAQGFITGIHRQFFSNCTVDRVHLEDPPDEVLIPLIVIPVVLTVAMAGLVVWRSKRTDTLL

B1: N^ε1-[(4S)-4-carboxy-4-[[(4S)-4-carboxy-4-(19-carboxynonadecanoylamino)butanoyl]amino]butanoyl]-[Glu14,Arg17,Pro21,Pro27,Arg34]-h-amylin (peptide)
peptide: K([γGlu-γGlu-C20 diacid])CNTATCATQRLAEFLRHSSPNFGAIPSSTNVGRNTY-NH2
modifications: disulfide 2-7; N-terminus assumed
SMILES: CC[C@H](C)[C@H](NC(=O)[C@H](C)NC(=O)CNC(=O)[C@H](Cc1ccccc1)NC(=O)[C@H](CC(N)=O)NC(=O)[C@@H]1CCCN1C(=O)[C@H](CO)NC(=O)[C@H](CO)NC(=O)[C@H](Cc1c[nH]cn1)NC(=O)[C@H](CCCNC(=N)N)NC(=O)[C@H](CC(C)C)NC(=O)[C@H](Cc1ccccc1)NC(=O)[C@H](CCC(=O)O)NC(=O)[C@H](C)NC(=O)[C@H](CC(C)C)NC(=O)[C@H](CCCNC(=N)N)NC(=O)[C@H](CCC(N)=O)NC(=O)[C@@H](NC(=O)[C@H](C)NC(=O)[C@@H]1CSSC[C@H](NC(=O)[C@@H](N)CCCCNC(=O)CC[C@H](NC(=O)CC[C@H](NC(=O)CCCCCCCCCCCCCCCCCCC(=O)O)C(=O)O)C(=O)O)C(=O)N[C@@H](CC(N)=O)C(=O)N[C@@H]([C@@H](C)O)C(=O)N[C@@H](C)C(=O)N[C@@H]([C@@H](C)O)C(=O)N1)[C@@H](C)O)C(=O)N1CCC[C@H]1C(=O)N[C@@H](CO)C(=O)N[C@@H](CO)C(=O)N[C@H](C(=O)N[C@@H](CC(N)=O)C(=O)N[C@H](C(=O)NCC(=O)N[C@@H](CCCNC(=N)N)C(=O)N[C@@H](CC(N)=O)C(=O)N[C@H](C(=O)N[C@@H](Cc1ccc(O)cc1)C(N)=O)[C@@H](C)O)C(C)C)[C@@H](C)O
notes: also called compound 88
B2: N^ε1-[(4S)-4-carboxy-4-[[(4S)-4-carboxy-4-(19-carboxynonadecanoylamino)butanoyl]amino]butanoyl]-[Glu14,Arg17,Pro21,Pro27,Arg35]-h-amylin (peptide)
peptide: K([γGlu-γGlu-C20 diacid])CNTATCATQRLAEFLRHSSPNFGAIPSSTNVGSRTY-NH2
modifications: disulfide 2-7; N-terminus assumed
SMILES: CC[C@H](C)[C@H](NC(=O)[C@H](C)NC(=O)CNC(=O)[C@H](Cc1ccccc1)NC(=O)[C@H](CC(N)=O)NC(=O)[C@@H]1CCCN1C(=O)[C@H](CO)NC(=O)[C@H](CO)NC(=O)[C@H](Cc1c[nH]cn1)NC(=O)[C@H](CCCNC(=N)N)NC(=O)[C@H](CC(C)C)NC(=O)[C@H](Cc1ccccc1)NC(=O)[C@H](CCC(=O)O)NC(=O)[C@H](C)NC(=O)[C@H](CC(C)C)NC(=O)[C@H](CCCNC(=N)N)NC(=O)[C@H](CCC(N)=O)NC(=O)[C@@H](NC(=O)[C@H](C)NC(=O)[C@@H]1CSSC[C@H](NC(=O)[C@@H](N)CCCCNC(=O)CC[C@H](NC(=O)CC[C@H](NC(=O)CCCCCCCCCCCCCCCCCCC(=O)O)C(=O)O)C(=O)O)C(=O)N[C@@H](CC(N)=O)C(=O)N[C@@H]([C@@H](C)O)C(=O)N[C@@H](C)C(=O)N[C@@H]([C@@H](C)O)C(=O)N1)[C@@H](C)O)C(=O)N1CCC[C@H]1C(=O)N[C@@H](CO)C(=O)N[C@@H](CO)C(=O)N[C@H](C(=O)N[C@@H](CC(N)=O)C(=O)N[C@H](C(=O)NCC(=O)N[C@@H](CO)C(=O)N[C@@H](CCCNC(=N)N)C(=O)N[C@H](C(=O)N[C@@H](Cc1ccc(O)cc1)C(N)=O)[C@@H](C)O)C(C)C)[C@@H](C)O
notes: also called compound 89
B3: N^ε1-[(4S)-4-carboxy-4-[[(4S)-4-carboxy-4-(19-carboxynonadecanoylamino)butanoyl]amino]butanoyl]-[Glu14,Arg17,Pro21,Pro27,Pro34,Arg35]-h-amylin (peptide)
peptide: K([γGlu-γGlu-C20 diacid])CNTATCATQRLAEFLRHSSPNFGAIPSSTNVGPRTY-NH2
modifications: disulfide 2-7; N-terminus assumed
SMILES: CC[C@H](C)[C@H](NC(=O)[C@H](C)NC(=O)CNC(=O)[C@H](Cc1ccccc1)NC(=O)[C@H](CC(N)=O)NC(=O)[C@@H]1CCCN1C(=O)[C@H](CO)NC(=O)[C@H](CO)NC(=O)[C@H](Cc1c[nH]cn1)NC(=O)[C@H](CCCNC(=N)N)NC(=O)[C@H](CC(C)C)NC(=O)[C@H](Cc1ccccc1)NC(=O)[C@H](CCC(=O)O)NC(=O)[C@H](C)NC(=O)[C@H](CC(C)C)NC(=O)[C@H](CCCNC(=N)N)NC(=O)[C@H](CCC(N)=O)NC(=O)[C@@H](NC(=O)[C@H](C)NC(=O)[C@@H]1CSSC[C@H](NC(=O)[C@@H](N)CCCCNC(=O)CC[C@H](NC(=O)CC[C@H](NC(=O)CCCCCCCCCCCCCCCCCCC(=O)O)C(=O)O)C(=O)O)C(=O)N[C@@H](CC(N)=O)C(=O)N[C@@H]([C@@H](C)O)C(=O)N[C@@H](C)C(=O)N[C@@H]([C@@H](C)O)C(=O)N1)[C@@H](C)O)C(=O)N1CCC[C@H]1C(=O)N[C@@H](CO)C(=O)N[C@@H](CO)C(=O)N[C@H](C(=O)N[C@@H](CC(N)=O)C(=O)N[C@H](C(=O)NCC(=O)N1CCC[C@H]1C(=O)N[C@@H](CCCNC(=N)N)C(=O)N[C@H](C(=O)N[C@@H](Cc1ccc(O)cc1)C(N)=O)[C@@H](C)O)C(C)C)[C@@H](C)O
notes: also called compound 110
B4: N^ε1-[(4S)-4-carboxy-4-[[(4S)-4-carboxy-4-(19-carboxynonadecanoylamino)butanoyl]amino]butanoyl]-[His14,Arg17,Pro21,Pro27]-h-amylin (peptide)
peptide: K([γGlu-γGlu-C20 diacid])CNTATCATQRLAHFLRHSSPNFGAIPSSTNVGSNTY-NH2
modifications: disulfide 2-7; N-terminus assumed
SMILES: CC[C@H](C)[C@H](NC(=O)[C@H](C)NC(=O)CNC(=O)[C@H](Cc1ccccc1)NC(=O)[C@H](CC(N)=O)NC(=O)[C@@H]1CCCN1C(=O)[C@H](CO)NC(=O)[C@H](CO)NC(=O)[C@H](Cc1c[nH]cn1)NC(=O)[C@H](CCCNC(=N)N)NC(=O)[C@H](CC(C)C)NC(=O)[C@H](Cc1ccccc1)NC(=O)[C@H](Cc1c[nH]cn1)NC(=O)[C@H](C)NC(=O)[C@H](CC(C)C)NC(=O)[C@H](CCCNC(=N)N)NC(=O)[C@H](CCC(N)=O)NC(=O)[C@@H](NC(=O)[C@H](C)NC(=O)[C@@H]1CSSC[C@H](NC(=O)[C@@H](N)CCCCNC(=O)CC[C@H](NC(=O)CC[C@H](NC(=O)CCCCCCCCCCCCCCCCCCC(=O)O)C(=O)O)C(=O)O)C(=O)N[C@@H](CC(N)=O)C(=O)N[C@@H]([C@@H](C)O)C(=O)N[C@@H](C)C(=O)N[C@@H]([C@@H](C)O)C(=O)N1)[C@@H](C)O)C(=O)N1CCC[C@H]1C(=O)N[C@@H](CO)C(=O)N[C@@H](CO)C(=O)N[C@H](C(=O)N[C@@H](CC(N)=O)C(=O)N[C@H](C(=O)NCC(=O)N[C@@H](CO)C(=O)N[C@@H](CC(N)=O)C(=O)N[C@H](C(=O)N[C@@H](Cc1ccc(O)cc1)C(N)=O)[C@@H](C)O)C(C)C)[C@@H](C)O
notes: also called compound 92
B5: N^ε1-[(4S)-4-carboxy-4-[[(4S)-4-carboxy-4-(19-carboxynonadecanoylamino)butanoyl]amino]butanoyl]-[Glu14,Arg17,Pro21,Pro27,His34,Glu35]-h-amylin (peptide)
peptide: K([γGlu-γGlu-C20 diacid])CNTATCATQRLAEFLRHSSPNFGAIPSSTNVGHETY-NH2
modifications: disulfide 2-7; N-terminus assumed
SMILES: CC[C@H](C)[C@H](NC(=O)[C@H](C)NC(=O)CNC(=O)[C@H](Cc1ccccc1)NC(=O)[C@H](CC(N)=O)NC(=O)[C@@H]1CCCN1C(=O)[C@H](CO)NC(=O)[C@H](CO)NC(=O)[C@H](Cc1c[nH]cn1)NC(=O)[C@H](CCCNC(=N)N)NC(=O)[C@H](CC(C)C)NC(=O)[C@H](Cc1ccccc1)NC(=O)[C@H](CCC(=O)O)NC(=O)[C@H](C)NC(=O)[C@H](CC(C)C)NC(=O)[C@H](CCCNC(=N)N)NC(=O)[C@H](CCC(N)=O)NC(=O)[C@@H](NC(=O)[C@H](C)NC(=O)[C@@H]1CSSC[C@H](NC(=O)[C@@H](N)CCCCNC(=O)CC[C@H](NC(=O)CC[C@H](NC(=O)CCCCCCCCCCCCCCCCCCC(=O)O)C(=O)O)C(=O)O)C(=O)N[C@@H](CC(N)=O)C(=O)N[C@@H]([C@@H](C)O)C(=O)N[C@@H](C)C(=O)N[C@@H]([C@@H](C)O)C(=O)N1)[C@@H](C)O)C(=O)N1CCC[C@H]1C(=O)N[C@@H](CO)C(=O)N[C@@H](CO)C(=O)N[C@H](C(=O)N[C@@H](CC(N)=O)C(=O)N[C@H](C(=O)NCC(=O)N[C@@H](Cc1c[nH]cn1)C(=O)N[C@@H](CCC(=O)O)C(=O)N[C@H](C(=O)N[C@@H](Cc1ccc(O)cc1)C(N)=O)[C@@H](C)O)C(C)C)[C@@H](C)O
B6: N^-1-[(4S)-4-carboxy-4-(19-carboxynonadecanoylamino)butanoyl]-Gly[Arg1,His14,Arg17,Pro21,Pro27,His34]-h-amylin (peptide)
peptide: {C20 diacid-γGlu}-GRCNTATCATQRLAHFLRHSSPNFGAIPSSTNVGHNTY-NH2
modifications: disulfide 3-8
SMILES: CC[C@H](C)[C@H](NC(=O)[C@H](C)NC(=O)CNC(=O)[C@H](Cc1ccccc1)NC(=O)[C@H](CC(N)=O)NC(=O)[C@@H]1CCCN1C(=O)[C@H](CO)NC(=O)[C@H](CO)NC(=O)[C@H](Cc1c[nH]cn1)NC(=O)[C@H](CCCNC(=N)N)NC(=O)[C@H](CC(C)C)NC(=O)[C@H](Cc1ccccc1)NC(=O)[C@H](Cc1c[nH]cn1)NC(=O)[C@H](C)NC(=O)[C@H](CC(C)C)NC(=O)[C@H](CCCNC(=N)N)NC(=O)[C@H](CCC(N)=O)NC(=O)[C@@H](NC(=O)[C@H](C)NC(=O)[C@@H]1CSSC[C@H](NC(=O)[C@H](CCCNC(=N)N)NC(=O)CNC(=O)CC[C@H](NC(=O)CCCCCCCCCCCCCCCCCCC(=O)O)C(=O)O)C(=O)N[C@@H](CC(N)=O)C(=O)N[C@@H]([C@@H](C)O)C(=O)N[C@@H](C)C(=O)N[C@@H]([C@@H](C)O)C(=O)N1)[C@@H](C)O)C(=O)N1CCC[C@H]1C(=O)N[C@@H](CO)C(=O)N[C@@H](CO)C(=O)N[C@H](C(=O)N[C@@H](CC(N)=O)C(=O)N[C@H](C(=O)NCC(=O)N[C@@H](Cc1c[nH]cn1)C(=O)N[C@@H](CC(N)=O)C(=O)N[C@H](C(=O)N[C@@H](Cc1ccc(O)cc1)C(N)=O)[C@@H](C)O)C(C)C)[C@@H](C)O
notes: also called compound 100

Each binder was assayed against T1, human calcitonin receptor (assay: cell-based or functional assay).

| Ratio hCT/hAmylin funct. | hCTR funct. EC50 | Binder |
| --- | --- | --- |
| 8.5 | 6.55 nM | B1 |
| 27.8 | 11.2 nM | B2 |
| 29.3 | 8.16 nM | B3 |
| 28 | 2.38 nM | B4 |
| 15.8 | 7.05 nM | B5 |
| 6.8 | 1.73 nM | B6 |

These binders were tested against T2, human amylin 3(a) receptor (human …) (assay: cell-based or functional assay).

| hAmylin-R funct. EC50 | Binder |
| --- | --- |
| 0.773 nM | B1 |
| 0.404 nM | B2 |
| 0.278 nM | B3 |
| 0.085 nM | B4 |
| 0.445 nM | B5 |
| 0.253 nM | B6 |

From patent US20140087995A1 (published 2014)
